Data reported in PMC5578167.

B1: viral Macrophage Inflammatory Protein-II (vMIP-II), human herpesvirus 8 (natural protein)
chain: GDTLGASWHRPDKCCLGYQKRPLPQVLLSSWYPTSQLCSKPGVIFLTKRGRQVCADKSKDWVKKLMQQLPVTAR
B2: viral Macrophage Inflammatory Protein-II (vMIP-II) (natural protein)
chain: B1 chain

Columns and labels:
[1] = target: viral CC chemokine inhibitor (vCCI), rabbitpox virus (rabbitpox virus); assay: ITC
[2] = target: viral CC chemokine inhibitor (vCCI), rabbitpox, produced and refolded from E. coli (rabbitpox virus); assay: ITC

| Binder | stoichiometry N [1] | Kd [2] [nM] |
| --- | --- | --- |
| B1 | 0.759 |  |
| B2 |  | < 0.1 |
